In patent publication US20260216326A1 (PROMETHEUS BIOSCIENCES, published 2026):

T1: TL1A in human blood (human, UniProt O95150 72-251, limits assumed)
T1 sequence (looked up): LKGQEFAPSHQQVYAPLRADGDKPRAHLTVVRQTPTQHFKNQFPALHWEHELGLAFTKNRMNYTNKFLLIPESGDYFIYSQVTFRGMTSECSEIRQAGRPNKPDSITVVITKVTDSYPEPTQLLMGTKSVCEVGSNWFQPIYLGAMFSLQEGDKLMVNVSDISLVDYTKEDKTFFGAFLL

T2: human TL1A (human, UniProt O95150 72-251, limits assumed)
T2 construct: also called tumor necrosis factor-like cytokine 1A; TNFSF15
T2 sequence (looked up): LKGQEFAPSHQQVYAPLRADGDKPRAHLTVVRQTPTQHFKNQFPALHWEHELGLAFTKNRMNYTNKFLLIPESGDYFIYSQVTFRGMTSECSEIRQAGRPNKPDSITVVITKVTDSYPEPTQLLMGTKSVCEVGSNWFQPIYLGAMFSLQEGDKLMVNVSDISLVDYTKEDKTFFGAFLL

T3: Murine TL1A (mouse, UniProt Q5UBV8 76-252, limits assumed)
T3 construct: also called mouse TL1A
T3 sequence (looked up): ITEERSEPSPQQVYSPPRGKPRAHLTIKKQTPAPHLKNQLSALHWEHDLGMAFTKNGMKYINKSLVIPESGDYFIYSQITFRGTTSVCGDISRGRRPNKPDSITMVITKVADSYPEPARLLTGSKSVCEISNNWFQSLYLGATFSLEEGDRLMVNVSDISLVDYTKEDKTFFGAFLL

T4: Cynomolgus TL1A (cynomolgus monkey, UniProt G7PRK8 72-251)
T4 construct: also called cynomolgus monkey TL1A
T4 sequence: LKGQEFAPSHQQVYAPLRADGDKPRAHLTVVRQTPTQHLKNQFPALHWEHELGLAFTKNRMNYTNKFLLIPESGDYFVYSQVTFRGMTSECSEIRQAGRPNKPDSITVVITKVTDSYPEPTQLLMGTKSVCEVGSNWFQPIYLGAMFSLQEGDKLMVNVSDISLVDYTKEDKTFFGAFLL

T5: TNFSF6 (FasL) (human, UniProt P48023 134-281, limits assumed)
T5 sequence (looked up): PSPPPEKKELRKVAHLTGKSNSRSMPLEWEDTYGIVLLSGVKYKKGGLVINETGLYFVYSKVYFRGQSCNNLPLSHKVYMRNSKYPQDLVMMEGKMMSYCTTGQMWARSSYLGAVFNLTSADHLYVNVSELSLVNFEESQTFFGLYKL

T6: TNFSF6 (FasL) (human, UniProt P48023 134-281, limits assumed)
T6 sequence (looked up): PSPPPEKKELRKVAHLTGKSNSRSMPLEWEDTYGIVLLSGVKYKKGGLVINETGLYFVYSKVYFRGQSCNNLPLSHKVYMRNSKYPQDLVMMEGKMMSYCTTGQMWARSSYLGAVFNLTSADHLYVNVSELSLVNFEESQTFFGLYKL

T7: cynomolgus monkey TL1A protein (cynomolgus monkey, UniProt G7PRK8 72-251)
T7 construct: Recombinant protein in ELISA, SPR and the TF-1 assay; In the monkey whole blood IFN-gamma assays the TL1A is made by the animal's own PBMCs; also called cynomolgus TL1A; Cyno TL1A
T7 sequence: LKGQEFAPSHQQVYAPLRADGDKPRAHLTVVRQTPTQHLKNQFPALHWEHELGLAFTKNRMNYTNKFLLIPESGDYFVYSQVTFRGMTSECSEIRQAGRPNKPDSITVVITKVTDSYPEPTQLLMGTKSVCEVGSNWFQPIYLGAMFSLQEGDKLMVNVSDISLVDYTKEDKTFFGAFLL

T8: mouse recombinant TL1A protein (mouse, UniProt Q5UBV8 76-252, limits assumed)
T8 construct: also called mouse TL1A; murine TL1A
T8 sequence (looked up): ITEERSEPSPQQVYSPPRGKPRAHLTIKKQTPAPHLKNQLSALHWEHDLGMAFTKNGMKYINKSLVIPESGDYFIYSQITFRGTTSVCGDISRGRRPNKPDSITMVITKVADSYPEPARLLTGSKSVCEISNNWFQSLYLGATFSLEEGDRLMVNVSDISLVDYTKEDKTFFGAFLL

T9: rat recombinant TL1A protein (rat, UniProt Q8K3Y7 76-252, limits assumed)
T9 construct: also called rat TL1A
T9 sequence (looked up): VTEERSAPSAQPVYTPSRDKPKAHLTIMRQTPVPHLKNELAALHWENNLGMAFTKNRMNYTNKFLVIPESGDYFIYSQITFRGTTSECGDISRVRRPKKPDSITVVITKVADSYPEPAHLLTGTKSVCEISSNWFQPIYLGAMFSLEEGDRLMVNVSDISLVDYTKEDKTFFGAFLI

T10: membrane-bound human TL1A on TNFSF15/HEK293 cells (human, UniProt O95150 1-251)
T10 construct: whole, on cells; also called membrane-associated TL1A
T10 sequence (looked up): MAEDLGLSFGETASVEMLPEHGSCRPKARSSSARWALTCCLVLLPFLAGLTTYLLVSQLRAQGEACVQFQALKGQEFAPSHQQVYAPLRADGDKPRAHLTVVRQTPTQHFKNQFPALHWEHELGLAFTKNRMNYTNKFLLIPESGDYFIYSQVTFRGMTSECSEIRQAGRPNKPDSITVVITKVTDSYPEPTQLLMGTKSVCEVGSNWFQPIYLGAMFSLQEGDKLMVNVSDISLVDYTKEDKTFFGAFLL

T11: recombinant human TL1A protein (tumor necrosis factor-like cytokine 1A) (human, UniProt O95150 72-251, limits assumed)
T11 construct: Recombinant protein used in ELISA, SPR and the TF-1 caspase assay; also called TNFSF15; soluble TL1A
T11 sequence (looked up): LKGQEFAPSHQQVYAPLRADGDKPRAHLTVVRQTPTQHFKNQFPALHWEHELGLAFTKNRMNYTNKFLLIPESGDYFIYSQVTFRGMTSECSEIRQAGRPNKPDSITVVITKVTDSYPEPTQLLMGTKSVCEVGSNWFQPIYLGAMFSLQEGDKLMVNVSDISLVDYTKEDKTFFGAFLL


Columns and labels:
TL1A in human blood [1] = biological target: T1, TL1A in human blood; assay: cell-based or functional assay
human TL1A [2] = biological target: T2, human TL1A; assay: ELISA titration on plate-coated human TL1A, unpurified culture supernatant
Murine TL1A = biological target: T3, Murine TL1A; assay: not named in the table (TL1A binding affinity row)
TL1A in human blood [3] = biological target: T1, TL1A in human blood; assay: cell-based or functional assay; remark: listed apart in the source
human TL1A [4] = biological target: T2, human TL1A; assay: method not given; three independent measurements, +/- standard deviation
Cynomolgus TL1A = biological target: T4, Cynomolgus TL1A; assay: as above
TNFSF6 (FasL) [5] = biological target: T5, TNFSF6 (FasL); assay: not named in the table (specificity row)
Text: (§1) TL1A is the only known ligand for its functional receptor DR3. TL1A is also capable of binding to Decoy receptor 3 (DcR3), a soluble TNF receptor without a transmembrane domain.

TNFSF10 = biological target: T12, TNFSF10 (human, UniProt P50591 114-281, limits assumed); assay: not named in the table (specificity row)
T12 construct: also called TRAIL
T12 sequence (P50591 114-281 limits assumed): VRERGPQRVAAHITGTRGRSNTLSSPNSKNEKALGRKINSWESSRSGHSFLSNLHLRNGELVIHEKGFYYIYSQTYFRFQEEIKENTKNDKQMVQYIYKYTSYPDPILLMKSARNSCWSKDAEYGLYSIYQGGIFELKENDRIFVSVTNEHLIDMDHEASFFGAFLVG
Text: as §1

TNFSF6 (FasL) [6] = biological target: T6, TNFSF6 (FasL); assay: ELISA
Text: as §1

TNFSF10 (TRAIL) = TNFSF10 (TRAIL) (human, UniProt P50591 114-281, limits assumed); assay: ELISA
Sequence of TNFSF10 (TRAIL) (P50591 114-281 limits assumed): as above
Text: as §1

TNFSF14 (LIGHT) = TNFSF14 (LIGHT) (UniProt O43557 74-240, limits assumed); assay: ELISA
Sequence of TNFSF14 (LIGHT) (O43557 74-240 limits assumed): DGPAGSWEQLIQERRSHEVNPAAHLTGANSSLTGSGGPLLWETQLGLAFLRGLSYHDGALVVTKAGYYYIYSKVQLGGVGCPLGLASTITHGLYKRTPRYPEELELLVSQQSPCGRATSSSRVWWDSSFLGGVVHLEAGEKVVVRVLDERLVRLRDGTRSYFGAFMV
Text: as §1

[7] = biological target: T7, cynomolgus monkey TL1A protein; assay: ELISA on recombinant TL1A protein; cynomolgus monkey TL1A
[8] = biological target: T8, mouse recombinant TL1A protein; assay: ELISA, titration of the antibody on recombinant mouse TL1A, A450 nm against [Ab] (nM), log axis
Description: (§2) ELISA for each protein was performed at least three times. The data from a representative experiment are shown and are mean±SD. Abbreviations: A=absorbance, Ab=antibody, Cyno=cynomolgus, nm=nanometer, nM=nanomolar. […] Samples were assayed in triplicate, on two separate occasions. Data presented are the mean TL1A concentrations of three animals per group±SD.

[9] = biological target: T9, rat recombinant TL1A protein; assay: ELISA, titration of the antibody on recombinant rat TL1A, A450 nm against [Ab] (nM), log axis
Description: as §2

[10] = biological target: T10, membrane-bound human TL1A on …; assay: binding to TNFSF15/HEK293 cells stably transfected with human TL1A
[11] = biological target: T7, cynomolgus monkey TL1A protein; assay: surface plasmon resonance (SPR), recombinant TL1A protein
[12] = biological target: T11, recombinant human TL1A protein (tumor …); assay: as above
[13] = biological target: T7, cynomolgus monkey TL1A protein; assay: cell-based or functional assay

% Inhibition at 1 nM Ig; interferon gamma release in human blood (TL1A in human blood [1])	% Inhibition at 10 nM Ig; interferon gamma release in human blood (TL1A in human blood [1])	Kd (human TL1A [2])	binding result (Murine TL1A)	IC50 values, Mean; inhibition of interferon gamma release from multiple human donors (TL1A in human blood [3])	Kd (human TL1A [4])	Kd (Cynomolgus TL1A)	binding result (TNFSF6 (FasL) [5])	binding result (TNFSF10)	binding result (TNFSF6 (FasL) [6])	binding result (TNFSF10 (TRAIL))	binding result (TNFSF14 (LIGHT))	EC50 [7]	binding result [8]	binding result [9]	EC50 [10]	Kd [11]	IC50 of inhibition of TL1A-induced caspase activation in cycloheximide-treated TF-1 cells [13]	mean IC50 of inhibition of IFN-gamma release in monkey whole blood stimulated with immune complex, IL-12 and IL-18 [13]	Binder	Kd [12]
59.8%	75.2%	50 pM	no binding	48.6	59 pM	36.3 pM	no binding	no binding	–	–	–	–	–	–	–	–	–	–	A219 (antibody, V domains shown, IgG1) VH: QVQLVQSGAEVKKPGASVKVSCKASGFDIQDTYMHWVKQRPGQGLEWMGRIDPASGHTKYDPKFQVRVTITRDTSTSTVYLELSSLRSEDTAVYYCARSGGLPDVWGQGTTVTVSS VL: EIVLTQSPGTLSLSPGERATLSCRASSSVSYMYWYQQKPGQAPRPLIYATSNLASGIPDRFSGSGSGTDFTLTISRLEPEDFAVYYCQQWEGNPRTFGGGTKLEIK	–
–	–	–	–	–	–	–	–	–	no binding	no binding	no binding	470 pM	no binding (tested: about 30 nM)	no binding (tested: about 30 nM)	17400 pM	40 pM	590 pM	1540 pM	anti-TL1A antibody A219 (antibody, V domains shown, Humanized monoclonal IgG1 with a kappa light chain, designed to abolish effector functions) VH: QVQLVQSGAEVKKPGASVKVSCKASGFDIQDTYMHWVKQRPGQGLEWMGRIDPASGHTKYDPKFQVRVTITRDTSTSTVYLELSSLRSEDTAVYYCARSGGLPDVWGQGTTVTVSS VL: EIVLTQSPGTLSLSPGERATLSCRASSSVSYMYWYQQKPGQAPRPLIYATSNLASGIPDRFSGSGSGTDFTLTISRLEPEDFAVYYCQQWEGNPRTFGGGTKLEIK	60 pM
